The values below come from US20220251233A1 (VERSEAU THERAPEUTICS, published 2022).

Usually EC50 stands for the concentration needed to bring the measured effect to its halfway point.

B1: 4J16 (antibody, V domains shown)
VH: EVQLQQSGAELVRPGASVRLSCTASGFNIKDDFLHWVNQRPEQGLEWIGRIDPANGNTKYAPKFRDRATITADTSSNTAYLQLSSLTSEDTAVYYCVRVYGDYWGQGTTLTVSS
VL: DIVMTQAAFSNPVTLGTSASISCRSSKSLLHSNGITYLYWYLQKPGQSPQLLIYQMSNLASGVPDRFSSSGSGTDFTLRISRVEAEDVGVYYCAQNLELPLTFGAGTKLELK
notes: Murine anti-human CD53 mAb purified from subcloned hybridoma; detected with anti-mouse IgG
B2: 4G15 (antibody, V domains shown)
VH: EVQLQQSGAELVRPGASVKLSCTTSGFNIKDDFMHWVKQRPEQGLEWIGWIDPENGNTQYASKFQGKATITADTSSNTAYLQLSSLTSEDTAVYYCTSYYEETMDYWGQGTSVTVSS
VL: B1 VL with R24S, K44R, Q55R, S69G, N96M, L99R, L101R, A105G, L111I
notes: as for B1
B3: 4K13 (antibody, V domains shown)
VH: EVQLQQSVAELVRPGASVKLSCTASGLNIKNTYMNWVKQRPEQGLEWIGRIDPANGYTKYAPKFQGKTTITAATSSNTAFLQLSSLTSGDTAIYYCTTAVVATGDYWGQGTTLTVSS
VL: B1 VL with N33D, Y41F, K44R, Q55R, S69G, N96M, L99F, L101F, A105T, L111I
notes: as for B1
B4: 5K16 (antibody, V domains shown)
VH: EVQLQQSVAELVRPGASVKLSCTASGFNIKNTYMYWVKQRPEQGLEWIGRIDPANGHTKCAPKFQGKATITADTSSNTAYLQLSSLTSEDSAIFYCARGEDYAMDYWGQGTSVTVSS
VL: DIVMTQSAPSVPVTPGESVSISCRSSKSLLHSNGDTYLYWFLQRPGQSPQVLIYRMSNLASGVPDRFSGSGSGTAFTLRISRVEAEDVGVYYCMQLLEYPFTFGSGTKLEIK
notes: as for B1
B5: 4C22 (antibody, V domains shown)
VH: EVQLQQSGAELVRPGASVKLSCTASGFNIKDDFMNWVKQRPEQGLEWIGRIDPANGHTKYAPKFQDKATITADTSSNTAFLHLSSLTSEDTAVYFCARWIPPYWGQGTLVTVSA
VL: B4 VL with S7A, V19A, V51L, F101Y, S105G
notes: as for B1
B6: 3G02 (antibody, V domains shown)
VH: EVQLQQSVAELVRPGASVKLSCTASGFNIKNTYMHWVKQRPEQGLEWIGRIDPAIGYTEYAPKFQGKATITADTSSNTAWLQLSSLTSEDTAIYYCAGGGPYYAMDYWGRGTSVTVSS
VL: B4 VL with S7A, V11I, D65A, L96H, S105A, I111L
notes: as for B1
B7: 4L19 (antibody, V domains shown)
VH: QVQLQQSGAELMKPGASVKLSCKATGYTFTGYWIEWVKQRPGHGLEWIGEISSGGYNTNYNKKFKGKATFTVDTSSNTAYMQLSSLTTEDSAIYYCTRDSNDYYFDYWGQGTTLTVSS
VL: DVVMTQTPLTLSVTIGQPASISCKSSQSLLHRNGKTHLNWLLQRPGQSPKLLIYLVSKLESGVPDRFSGSGSGTDFTLRISRVEAEDLGVYYCLQVTHFPYTFGSGTKLEIK
notes: as for B1

Substitutions are numbered along the chain they refer to.

In this experiment the target is T1, Human CD53-CHO (full-length human CD53 over-expressed on CHO-K1 cells) (human, UniProt P19397 1-219).
T1 construct: Tetraspanin cell-surface antigen
T1 sequence: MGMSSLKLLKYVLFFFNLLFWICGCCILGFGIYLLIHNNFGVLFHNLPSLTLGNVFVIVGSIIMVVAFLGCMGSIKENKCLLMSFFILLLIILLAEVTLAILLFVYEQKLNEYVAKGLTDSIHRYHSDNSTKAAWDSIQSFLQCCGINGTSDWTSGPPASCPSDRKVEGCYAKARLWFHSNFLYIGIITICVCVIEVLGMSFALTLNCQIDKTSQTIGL
As to the kind of experiment: flow cytometry on CD53-CHO cells, anti-mouse IgG AF647 gMFI, 4-parameter fit. As to the method: Binding of anti-human CD53 antibodies was determined by flow cytometry for their ability to bind human CD53-CHO cells compared to parental CHO-K1 cells. All assay steps were performed in FACS buffer (phosphate buffered saline pH 7.4 supplemented with 2% fetal bovine serum). Twenty thousand cells were seeded in 384-well plates and washed twice with ice cold buffer. Cells were incubated with purified antibodies titrated 3-fold from 200 nM to 0.09 nM at 4° C. for 1 hour with gentle agitation, then washed twice with FACS buffer and incubated with anti-mouse IgG Alexa Fluor® 647 and incubated at 4° C. for 40 minutes. Cells were washed twice and resuspended in FACS buffer. Analysis was preformed on the IntelliCyt® iQue Screener and gMFI values for Alexa Fluor® 647 were generated. EC50 values were determined in GraphPad Prism8. Concentration was transformed from nM to Log 10 nM and curves were fit with a nonlinear regression of log(agonist) vs. response−Variable slope (four parameters) or Y=Bottom+(Top−Bottom)/(1+10\hat{ }((LogEC50−X)*HillSlope)). EC50 values for all anti-human CD53 antibodies can be found in Table 6, and representative binding curves can be found in FIG. 7. Binding to CD53-CHO is represented by closed symbols and binding to parental CHO-K1 cells is represented by open symbols.
(In general: A flow cytometer gives signals particle by particle.)
Regarding B1, the concentration giving a half-maximal response (EC50) worked out at 1.6 nM.

As for B2, a half-maximal response (EC50) required 3.8 nM. Under B3 stands about 1 nM; under B4, 5.6 nM.

The molecule B5 returned an EC50 of about 7 nM. Under B6 stands about 7 nM.

The molecule B7 came in with an EC50 of 4.3 nM.
